Key:
PolyQ35::YFP = PolyQ35::YFP aggregation in C. elegans overexpressing NAC (fluorescence microscopy, SDD-AGE); type: in vivo; details: day 3 of adulthood
From the text: NAC is a major ribosome-binding factor interacting broadly with nascent chains (del Alamo et al., 2011). However, its assumed chaperone function is poorly investigated. […] Although loss of NAC causes pleiotropic defects in C. elegans (Gamerdinger et al., 2015), this finding raises the possibility that NAC directly exerts a chaperone function on aggregation-prone proteins. In this case, overexpression of NAC should prevent aggregation of PolyQ proteins in vivo. Therefore, we used a C. elegans strain expressing 35 consecutive glutamine residues fused to YFP (PolyQ35::YFP) in body wall muscle cells. This PolyQ length is close to the aggregation threshold in C. elegans muscle cells, leading to progressive, age-dependent aggregation starting at day 2 of adulthood (Morley et al., 2002). We generated transgenic animals that overexpress FLAG-tagged α- and βNAC under the control of the muscle-specific myo-3 promoter. PolyQ aggregation was assessed at day 3 of adulthood by fluorescence microscopy as well as semi-denaturing detergent agarose gel electrophoresis (SDD-AGE), which detects high molecular weight oligomeric PolyQ species (Halfmann and Lindquist, 2008). […] This is evident by magnification of the head regions showing diffuse PolyQ35::YFP and less punctate PolyQ35::YFP structures when NAC was overexpressed (FIG. 1A, head region images). […] To directly test the potential chaperone function of NAC, we employed a peptide composed of 51 consecutive glutamines (PolyQ51) as a model substrate in a well-established in vitro aggregation assay. We initiated aggregation of PolyQ51 by cleaving a solubilizing GST tag with TEV protease and detected aggregates over time using a filter trap assay.
Worms were cultured according to standard techniques with E. coli OP50 as food source (Brenner, 1974). Transgenic strains were generated using standard microinjection protocols (Mello and Fire, 1995). […]

[1] = target: T1, mutant Huntingtin exon 1 (mHttQ51) (Homo sapiens, UniProt P42858, INS38QQQQQQQQQQQQQQQQQQQQQQQQQQQQQQQ); assay: In vitro filter trap aggregation assay of mutant Huntingtin exon 1; type: biochemical
T1 construct: mutant Huntingtin exon 1 containing a pathogenic stretch of 51 glutamines (mHttQ51); GST (N, cleaved yes); made in house; host or cells: E. coli Rosetta 2(DE3) pLysS
T1 sequence (P42858 with tags, fused parts or gaps with the stated changes limits assumed): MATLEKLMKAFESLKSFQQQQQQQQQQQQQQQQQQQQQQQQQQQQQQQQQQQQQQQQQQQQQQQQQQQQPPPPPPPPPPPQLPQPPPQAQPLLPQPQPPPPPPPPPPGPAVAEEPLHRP
Procedure: Mutant Huntingtin and PolyQ51 aggregation reactions were performed at concentration 3 μM of mHttQ51, 0.044 Units/μl acTEV protease (Invitrogen, Carlsbad, CA, USA), and respective concentrations of Ovalbumin (Sigma) or purified NAC chaperone variants. Aggregation was conducted in TEV reaction buffer (Invitrogen) and incubated at 30° C. AtxQ78 was buffer exchanged into TEV reaction buffer using 7K MWCO Zeba Spin Desalting Columns (Thermo Fisher) to initiate aggregation. AtxQ78 aggregation reactions were performed at 30 μM of Ataxin-3 in reaction buffer (20 mM sodium phosphate pH 7.5, 25 mM NaCl, 6 mM MgCl2, 2 mM DTT, 5% (v/v) glycerol) and incubated at 37° C. Samples at varied time-points were then taken and combined in a 1:1 ratio with a 4% (w/v) SDS, 100 mM DTT solution, boiled for 5 min at 95° C., and stored at −20° C. Samples were then filtered through a 0.22 μm cellulose acetate membrane (Whatman) and washed with 0.1% (w/v) SDS. Membrane was probed using an S-tag antibody (Abcam) for mHttQ51 and PolyQ51, and with a His-tag antibody (Abcam) for AtxQ78.

B1: NAC: nascent polypeptide-associated complex, heterodimer of αNAC and βNAC; species not given at the place (C. elegans icd-1/icd-2 when overexpressed in worms) (protein)
chain 1: MTGSTETRQKEVKEPQVDVSDDSDNEAVEQELTEEQRRVAEAAGLGDHIDKQAKQSRSEKKARKLFSKLGLKQVTGVSRVCIRKSKNILFVINKPDVFKSPGSDTYIIFGEAKIEDLTQHAQMSAIENLKPTREAPQLKTVEEDENEDVEEDSTGIEEKDIELVISQANTTRNKAIRALKEADNDIVNAIMSLTM
chain 2: MMDSKAIAERIKKLQAQQEHVRIGGKGTPRRKKKVIHKTAAADDKKLQSNLKKLSVTNIPGIEEVNMIKDDGTVIHFNNPKVQTSVPANTFSVTGSADNKQITEMLPGILNQLGPESLTHLKKLANNVTKLGPDGKGEDEDVPELVGDFDAASKNETKADEQ
For B1, the “insoluble high molecular weight PolyQ35::YFP aggregate species” value (PolyQ35::YFP; NAC overexpressing worms) was “less insoluble high molecular weight aggregate species”, the “PolyQ35::YFP aggregation” value (PolyQ35::YFP; overexpressed in body wall muscle cells (myo-3 promoter), fluorescence microscopy) was “effectively suppressed PolyQ35::YFP aggregation” and the “concentration dependence of mHttQ51 aggregation suppression” value ([1]; 1×, 5× or 10× molar excess of human NAC) was “concentration dependent”. The “disaggregation of preformed mHttQ51 aggregates” value ([1]; 6-hour time delay between initiation of aggregation and addition, 5× molar excess) was “did not disaggregate preformed mHttQ51 aggregates”.
